Assay results taken from article PMC6986764, “RNA binding protein FXR1-miR301a-3p axis contributes to p21WAF1 degradation in oral cancer”.

Molecular target: FXR1 (rFXR1) (human, UniProt P51114 1-621)
Assay: EMSA; 1 ug E. coli tRNA, 1.5 mM EDTA; EMSA: 0.5 pmol 32P-miRNA in 20 ul, 20 mM Na-HEPES pH 7.0, 150 mM NaCl, 0.75 mM DTT, 1.5 mM EDTA, 10% glycerol, 1 ug E. coli tRNA, 37 C 30 min; 12% native PAGE
Conditions: protein: recombinant, His-tag (pET28a), thrombin-cleaved in final dialysis, single strand

Chain of FXR1 (rFXR1) (P51114 whole entry): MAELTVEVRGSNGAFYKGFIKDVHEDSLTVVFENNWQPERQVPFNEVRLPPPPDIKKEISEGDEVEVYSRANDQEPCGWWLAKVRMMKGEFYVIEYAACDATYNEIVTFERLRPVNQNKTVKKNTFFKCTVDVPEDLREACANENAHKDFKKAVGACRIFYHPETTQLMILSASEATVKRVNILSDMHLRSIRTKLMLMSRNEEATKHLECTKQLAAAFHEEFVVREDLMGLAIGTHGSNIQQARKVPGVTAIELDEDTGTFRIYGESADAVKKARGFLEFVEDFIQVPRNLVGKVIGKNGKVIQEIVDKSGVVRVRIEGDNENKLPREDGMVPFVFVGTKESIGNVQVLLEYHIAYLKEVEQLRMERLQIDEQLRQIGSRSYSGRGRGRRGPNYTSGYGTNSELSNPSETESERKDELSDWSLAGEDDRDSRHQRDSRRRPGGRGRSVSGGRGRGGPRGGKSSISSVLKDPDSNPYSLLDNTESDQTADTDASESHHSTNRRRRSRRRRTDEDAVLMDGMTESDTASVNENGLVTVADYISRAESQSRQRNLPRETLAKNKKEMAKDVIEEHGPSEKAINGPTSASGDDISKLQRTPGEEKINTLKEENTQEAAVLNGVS

Binder	binding result (label: 32P)	binding result (label: 5'-32P)
UUCCCUUUGUCAUCCUAUGCCU (ssRNA) [miR204-5p]	no binding	–
CAGUGCAAUAGUAUUGUCAAAGC (ssRNA) [miR301a-3p]	–	binds
